Test results as given in the nanobody polyreactivity screen of Harvey et al. (2022).

Test: yeast display, Sf9 membrane polyspecificity reagent, FACS + sequencing; frameworks hold sequencing errors
How it was run: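 Synthetic nanobody libraries on Saccharomyces cerevisiae BJ5465 were galactose-induced for 36–48 hours, stained 1 hour at 4 °C with 10% biotinylated, detergent-solubilized Sf9 membrane reagent and enriched on streptavidin microbeads. FACS then separated cells into low and high (top ~1%) gates by anti-HA (expression) and streptavidin (reagent binding) fluorescence. Genes were colony-PCR amplified, MiSeq 2 × 250 sequenced and CDR-length filtered. A clone's polyreactivity label is that of its gate of origin.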

| Sequence | polyreactivity (PSR sort gate) |
| --- | --- |
| QVQLVESGGGLVQAGGSLRLSCAASGSIFSSYAMGWYRQAPGKERELVAAISSGGGITYYADSVKGRFTISRDNAKNTVYLQMNSLKPEDTAVYYCNARVARSNNGWYYYWGQGTQVTVSS | high polyreactivity |
| QVQLVESGGGLVQAGGSLRLSCAASGSIFSSYAMGWYRQAPGKERELVAAISSSGDSTYADSVKGRFTISRDNAKNTVYLQMNSLKPEDTAVYYCAVGGAGSDDYWGQGTQVTVSS | low polyreactivity |
| QVQLVESGGGLVQAGGSLRLSCAASGSIFSSYAMGWYRQAPGKERELVAAISWRGGSTYYADSVKGRFTISRDNAKNTVYLQMNSLKPEDTAVYYCAAQYQYYGGRRYDYWGQGTQVTVSS | high polyreactivity |
| QVQLVESGGGLVQAGGSLRLSCAASGSIFSSYSMGWYRQAPGKERELVAAISSGDSTYYADSVKGRFTISRDNAKNTVYLQMNSLKPEDTAVYYCAAPWYAWGQGTQVTVSS | low polyreactivity |
| QVQLVESGGGLVQAGGSLRLSCAASGSIFSTYAMGWSRQAPGKERELVAAITTSGGRTYYADSVKGRFTISRDNAKNTVYLQMNSLKPEDTAVYYCNAVRGGRYGLDYWGQGTQVTVSS | high polyreactivity |
| QVQLVESGGGLVQAGGSLRLSCAASGSIFSTYAMGWYRQAPGKERELVAAISRRAGTTYYADSVKGRFTISRDNAKNTVYLQMNSLKPEDTAVYYCAALTESSSYGYWGQGTQVTVSS | low polyreactivity |
| QVQLVESGGGLVQAGGSLRLSCAASGSIFSTYAMGWYRQAPGKERELVAALDDDGGSTYYADSVKGRFTISRDNAKNTVYLQMNSLKPEDTAVYYCNADYDGNGWAGDYSDSYDYWGQGTQVTVSS | low polyreactivity |
| QVQLVESGGGLVQAGGSLRLSCAASGSIFSTYVMVWYRQAPGKDRELVAAITVSVGSTYYADSVKGRFTISRDNAKNTVYLQMNSLKPEDTAVYYCAAYGGTGYPFDAYYHDYDYWGQGTQVTVSS | low polyreactivity |
| QVQLVESGGGLVQAGGSLRLSCAASGSIFSVNAMGWYRQAPGKERELVAAISWRGGSTYYADSVKGRFTISRDNAKNTVYLQMNSLKPEDTAVYYCNAVISVKRSTRYGYWGQGTQVTVSS | low polyreactivity |
| QVQLVESGGGLVQAGGSLRLSCAASGSIFSVNAMGWYRQAPGKVRELVAAISWRGGSTYYADSVKGRFTISRYNAKTTVYLQMNSLKPEDTAGYYCNAVISVKRSTRYGYWGQGTQVTVSS | low polyreactivity |
| QVQLVESGGGLVQAGGSLRLSCAASGSIFSVNTMGGYRQAPGKERELVADISSGDSTYYADSVKGRFTISRDNAKNTVYLQMNSLKPEDTAVYFCNADVYSWVSGKEGDYWGQGTQVTVSS | low polyreactivity |
| QVQLVESGGGLVQAGGSLRLSCAASGSIFSVYAMGWYRQAPGKERELVAAITSGTSTYADSVKGRFTISRDNAKNTVYLQMNSLKPEDTAVYYCAAEFLWIVDYWGQGTQVTVSS | low polyreactivity |
| QVQLVESGGGLVQAGGSLRLSCAASGSIFSVYSMGWYRQAPGKERELVADITRSGARTYYADSVKGRFTISRDNAKNTVYFPMNSLKPEDTAVYYCAADDPCYDQVEYWGQGTQVTVSS | high polyreactivity |
| QVQLVESGGGLVQAGGSLRLSCAASGSIFSVYVMGWYRQAPGKERELVAAISWSDSDTYYADSVKGRFTISRDNAKNTVYLQMNSLKPEDTAVYYCNVVNPVLYSSYEFDYWGQGTQVTVSS | high polyreactivity |
| QVQLVESGGGLVQAGGSLRLSCAASGSIFSWSAMGWYRQAPGKVRELVAGITWTGGSTYYADSVKGRFTISRDNAKNTVYLQRNSLKPEDTAVYYCNARRATYRKYTPVPFDRYDYWGQGTQVTVSS | high polyreactivity |
| QVQLVESGGGLVQAGGSLRLSCAASGSIFSWYAMGWYRQAHGKEREFVAGISSSGSTKYADSVKGRFTISRDNAKNTVYLQMNSLKPEDTAVYYCAVANKSQRYFYYYFHYYYWGQGTQVTVSS | low polyreactivity |
| QVQLVESGGGLVQAGGSLRLSCAASGSIFSWYAMGWYRQAPGKERELVAAIRRGGSTYYADSVKGRFTISRDNAKNTVYLQMNSLKPEDTAVYYCAARVYTAASRGRGDYWGQGTQVTVSS | low polyreactivity |
